Where two headings read alike, the source gives them in different places.
Experiments:
LILRA2 [1] = molecular target: T1, LILRA2 (UniProt Q8N149 24-449, limits assumed); experiment: ELISA, coated protein 100ng/well, antibody 50μg/mL
T1 construct: construct not described

LILRB2 [2] = molecular target: T2, LILRB2 (UniProt Q8N423 22-460, limits assumed); experiment: ELISA, coated protein 100ng/well, antibody 50μg/mL
T2 construct: construct not described

LILRB3 [3] = molecular target: T3, LILRB3 (UniProt O75022 24-443, limits assumed); experiment: ELISA, coated protein 100ng/well, antibody 50μg/mL
T3 construct: construct not described

LILRB1 [4] = molecular target: T4, LILRB1 (UniProt Q8NHL6 24-461, limits assumed); experiment: ELISA, coated protein 100ng/well, antibody 50μg/mL
T4 construct: construct not described

LILRA3 [5] = molecular target: T5, LILRA3 (UniProt Q8N6C8 24-439); experiment: ELISA, coated protein 100ng/well, antibody 50μg/mL
T5 construct: construct not described

LILRA1 [6] = molecular target: T6, LILRA1 (UniProt O75019 17-461, limits assumed); experiment: ELISA, coated protein 100ng/well, antibody 50μg/mL
T6 construct: construct not described

LILRA4 [7] = molecular target: T7, LILRA4 (UniProt P59901 24-446, limits assumed); experiment: ELISA, coated protein 100ng/well, antibody 50μg/mL
T7 construct: construct not described

LILRA5 [8] = molecular target: T8, LILRA5 (UniProt A6NI73 42-268, limits assumed); experiment: ELISA, coated protein 100ng/well, antibody 50μg/mL
T8 construct: construct not described

LILRB4抗原 (人LILRB4蛋白胞外段) [9] = molecular target: T9, LILRB4抗原 (人LILRB4蛋白胞外段) (human, UniProt Q8NHJ6 22-259); experiment: ELISA, coated protein 100ng/well, antibody 50μg/mL
T9 construct: extracellular domain; also called 白细胞免疫球蛋白样受体亚家族B成员4

LILRB5 [10] = molecular target: T10, LILRB5 (UniProt O75023 24-458, limits assumed); experiment: ELISA, coated protein 100ng/well, antibody 50μg/mL
T10 construct: construct not described

LILRA6 [11] = molecular target: T11, LILRA6 (UniProt Q6PI73 24-447, limits assumed); experiment: ELISA, coated protein 100ng/well, antibody 50μg/mL
T11 construct: construct not described

LILRA2 [12] = molecular target: T1, LILRA2; experiment: ELISA, coated protein 100ng/well
LILRB2 [13] = molecular target: T2, LILRB2; experiment: ELISA, coated protein 100ng/well
LILRB3 [14] = molecular target: T3, LILRB3; experiment: ELISA, coated protein 100ng/well
LILRB1 [15] = molecular target: T4, LILRB1; experiment: ELISA, coated protein 100ng/well
LILRA3 [16] = molecular target: T5, LILRA3; experiment: ELISA, coated protein 100ng/well
LILRA1 [17] = molecular target: T6, LILRA1; experiment: ELISA, coated protein 100ng/well
LILRA4 [18] = molecular target: T7, LILRA4; experiment: ELISA, coated protein 100ng/well
LILRA5 [19] = molecular target: T8, LILRA5; experiment: ELISA, coated protein 100ng/well
LILRB5 [20] = molecular target: T10, LILRB5; experiment: ELISA, coated protein 100ng/well
LILRA6 [21] = molecular target: T11, LILRA6; experiment: ELISA, coated protein 100ng/well
LILRB4抗原 (人LILRB4蛋白胞外段) [22] = molecular target: T9, LILRB4抗原 (人LILRB4蛋白胞外段); experiment: ELISA, coated LILRB4, anti-mouse IgG-HRP
THP-1细胞表面的LILRB4 [23] = molecular target: T12, THP-1细胞表面的LILRB4 (human, UniProt Q8NHJ6 22-448); experiment: cell-based or functional assay
THP-1细胞表面的LILRB4 [24] = molecular target: T12, THP-1细胞表面的LILRB4; experiment: flow cytometry on THP-1 cells, FITC anti-mouse IgG
THP-1细胞表面的LILRB4 [25] = molecular target: T12, THP-1细胞表面的LILRB4; experiment: flow cytometry competition on THP-1 cells; competitor FITC-labelled ApoE
LILRB4抗原 (人LILRB4蛋白胞外段) [26] = molecular target: T9, LILRB4抗原 (人LILRB4蛋白胞外段); experiment: ELISA, coated LILRB4, anti-human IgG-HRP
THP-1细胞表面的LILRB4 [27] = molecular target: T12, THP-1细胞表面的LILRB4; experiment: flow cytometry on THP-1 cells
THP-1细胞表面的LILRB4 [28] = molecular target: T12, THP-1细胞表面的LILRB4; experiment: cell-based or functional assay; remark: listed apart in the source
THP-1细胞表面的LILRB4 [29] = molecular target: T12, THP-1细胞表面的LILRB4; experiment: cell-based or functional assay; remark: listed apart in the source
THP-1细胞表面的LILRB4 [30] = molecular target: T12, THP-1细胞表面的LILRB4; experiment: flow cytometry competition on THP-1 cells; competitor FITC-labelled ApoE; remark: listed apart in the source

T6 sequence (O75019 17-461 limits assumed): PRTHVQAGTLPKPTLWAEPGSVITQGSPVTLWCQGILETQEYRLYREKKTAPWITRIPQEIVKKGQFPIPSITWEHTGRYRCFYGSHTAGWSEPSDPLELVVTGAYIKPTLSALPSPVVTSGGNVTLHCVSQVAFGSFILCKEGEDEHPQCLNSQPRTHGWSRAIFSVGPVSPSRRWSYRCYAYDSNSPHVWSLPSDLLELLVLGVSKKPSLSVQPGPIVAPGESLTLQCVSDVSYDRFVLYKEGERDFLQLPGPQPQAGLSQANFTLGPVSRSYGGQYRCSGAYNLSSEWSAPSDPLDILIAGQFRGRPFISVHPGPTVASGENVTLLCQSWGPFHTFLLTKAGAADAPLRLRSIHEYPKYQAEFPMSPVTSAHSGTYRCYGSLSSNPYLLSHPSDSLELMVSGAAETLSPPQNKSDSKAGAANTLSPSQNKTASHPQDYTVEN
T8 sequence (A6NI73 42-268 limits assumed): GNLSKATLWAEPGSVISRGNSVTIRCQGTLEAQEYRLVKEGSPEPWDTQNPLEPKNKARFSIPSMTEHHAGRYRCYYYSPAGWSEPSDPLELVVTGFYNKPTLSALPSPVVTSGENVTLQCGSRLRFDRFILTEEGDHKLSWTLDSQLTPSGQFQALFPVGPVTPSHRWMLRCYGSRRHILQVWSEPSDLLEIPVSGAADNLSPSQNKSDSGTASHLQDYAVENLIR
T11 sequence (Q6PI73 24-447 limits assumed): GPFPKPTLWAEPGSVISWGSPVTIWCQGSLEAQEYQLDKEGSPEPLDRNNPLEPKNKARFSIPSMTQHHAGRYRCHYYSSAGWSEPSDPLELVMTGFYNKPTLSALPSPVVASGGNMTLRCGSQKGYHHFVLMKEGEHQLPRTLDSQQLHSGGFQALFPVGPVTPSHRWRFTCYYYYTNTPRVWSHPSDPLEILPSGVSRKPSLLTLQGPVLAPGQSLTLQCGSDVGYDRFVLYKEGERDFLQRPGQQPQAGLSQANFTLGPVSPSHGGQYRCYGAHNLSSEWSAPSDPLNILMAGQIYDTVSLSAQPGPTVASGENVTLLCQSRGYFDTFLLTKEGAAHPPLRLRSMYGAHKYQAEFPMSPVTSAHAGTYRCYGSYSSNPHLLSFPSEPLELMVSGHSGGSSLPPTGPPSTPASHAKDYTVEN
T5 sequence (Q8N6C8 24-439 limits assumed): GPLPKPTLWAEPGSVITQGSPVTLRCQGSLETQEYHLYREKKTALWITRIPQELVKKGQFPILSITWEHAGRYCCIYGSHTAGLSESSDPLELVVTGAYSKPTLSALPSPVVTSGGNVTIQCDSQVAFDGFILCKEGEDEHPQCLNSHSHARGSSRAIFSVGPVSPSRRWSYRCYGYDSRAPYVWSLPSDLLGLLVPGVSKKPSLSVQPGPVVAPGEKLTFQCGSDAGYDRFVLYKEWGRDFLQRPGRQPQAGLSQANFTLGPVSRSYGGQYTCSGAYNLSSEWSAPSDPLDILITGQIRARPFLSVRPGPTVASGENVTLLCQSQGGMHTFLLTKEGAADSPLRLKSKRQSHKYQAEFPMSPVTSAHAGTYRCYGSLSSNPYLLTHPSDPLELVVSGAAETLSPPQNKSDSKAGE
T4 sequence (Q8NHL6 24-461 limits assumed): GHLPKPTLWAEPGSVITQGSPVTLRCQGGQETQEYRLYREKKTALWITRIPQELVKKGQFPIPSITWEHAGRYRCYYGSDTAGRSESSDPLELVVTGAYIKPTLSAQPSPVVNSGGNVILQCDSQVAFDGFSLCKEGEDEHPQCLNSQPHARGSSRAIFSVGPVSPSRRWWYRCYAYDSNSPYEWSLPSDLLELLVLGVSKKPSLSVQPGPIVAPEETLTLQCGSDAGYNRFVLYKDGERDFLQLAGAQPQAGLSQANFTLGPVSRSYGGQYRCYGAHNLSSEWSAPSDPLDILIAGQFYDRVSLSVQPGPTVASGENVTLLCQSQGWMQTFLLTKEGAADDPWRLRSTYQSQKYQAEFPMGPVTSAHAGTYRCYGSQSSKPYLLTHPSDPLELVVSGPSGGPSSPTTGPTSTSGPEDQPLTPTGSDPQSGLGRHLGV
T2 sequence (Q8N423 22-460 limits assumed): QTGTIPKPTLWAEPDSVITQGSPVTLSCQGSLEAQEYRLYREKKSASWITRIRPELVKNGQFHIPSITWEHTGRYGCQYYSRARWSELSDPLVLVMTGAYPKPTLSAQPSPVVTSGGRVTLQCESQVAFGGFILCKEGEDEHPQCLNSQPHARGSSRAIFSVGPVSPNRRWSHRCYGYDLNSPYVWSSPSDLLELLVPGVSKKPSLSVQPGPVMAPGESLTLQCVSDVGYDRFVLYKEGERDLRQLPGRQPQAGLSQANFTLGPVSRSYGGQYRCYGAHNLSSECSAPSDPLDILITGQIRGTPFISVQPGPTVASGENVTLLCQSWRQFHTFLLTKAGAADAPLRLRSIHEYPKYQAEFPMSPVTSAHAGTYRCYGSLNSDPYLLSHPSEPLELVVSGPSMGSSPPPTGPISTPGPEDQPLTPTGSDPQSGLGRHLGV
T1 sequence (Q8N149 24-449 limits assumed): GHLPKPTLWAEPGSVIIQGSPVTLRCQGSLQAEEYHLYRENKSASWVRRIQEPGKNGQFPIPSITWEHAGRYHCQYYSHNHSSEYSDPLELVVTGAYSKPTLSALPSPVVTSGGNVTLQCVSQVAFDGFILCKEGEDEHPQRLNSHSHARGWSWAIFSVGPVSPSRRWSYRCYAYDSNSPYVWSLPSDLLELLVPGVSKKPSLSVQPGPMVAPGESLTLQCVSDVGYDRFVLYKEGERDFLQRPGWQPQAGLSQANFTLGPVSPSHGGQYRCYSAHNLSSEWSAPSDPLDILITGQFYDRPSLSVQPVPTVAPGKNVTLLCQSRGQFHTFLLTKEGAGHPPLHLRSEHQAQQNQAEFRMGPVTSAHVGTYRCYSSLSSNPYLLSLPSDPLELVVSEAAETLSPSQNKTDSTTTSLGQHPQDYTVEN
T7 sequence (P59901 24-446 limits assumed): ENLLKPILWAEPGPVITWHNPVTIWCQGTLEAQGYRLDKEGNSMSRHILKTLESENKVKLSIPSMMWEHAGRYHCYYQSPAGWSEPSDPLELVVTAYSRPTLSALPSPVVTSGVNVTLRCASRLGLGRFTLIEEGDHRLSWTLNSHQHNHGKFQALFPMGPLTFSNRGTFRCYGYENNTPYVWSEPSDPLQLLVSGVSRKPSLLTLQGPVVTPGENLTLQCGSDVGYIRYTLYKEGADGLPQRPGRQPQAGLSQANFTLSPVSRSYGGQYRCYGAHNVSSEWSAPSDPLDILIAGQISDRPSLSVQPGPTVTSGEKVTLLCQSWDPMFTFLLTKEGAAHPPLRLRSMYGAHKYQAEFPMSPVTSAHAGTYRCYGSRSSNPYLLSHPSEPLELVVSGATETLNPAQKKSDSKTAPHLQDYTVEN

B1: MA-Ⅰ 鼠源抗LILRB4单克隆抗体 (mouse IgG1, Ck) (antibody)
heavy: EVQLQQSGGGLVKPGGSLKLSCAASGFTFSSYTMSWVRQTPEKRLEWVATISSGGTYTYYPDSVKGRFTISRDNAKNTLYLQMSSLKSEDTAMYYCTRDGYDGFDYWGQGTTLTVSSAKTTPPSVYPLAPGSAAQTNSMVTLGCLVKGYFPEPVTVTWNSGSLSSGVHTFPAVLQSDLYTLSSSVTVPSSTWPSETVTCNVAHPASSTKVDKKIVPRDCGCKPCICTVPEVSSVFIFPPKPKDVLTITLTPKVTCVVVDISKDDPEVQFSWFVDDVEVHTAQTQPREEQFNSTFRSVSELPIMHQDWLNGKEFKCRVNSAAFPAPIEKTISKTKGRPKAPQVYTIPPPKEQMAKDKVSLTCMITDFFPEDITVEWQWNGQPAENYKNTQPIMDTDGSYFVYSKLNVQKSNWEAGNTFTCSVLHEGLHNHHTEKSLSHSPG
light: DIVMTQTTLSLPVSPGDQASISCRSSQSLAHSNGNTYLHWYLQKPGQSPKLLIYKVSNRFSGVPDRFSGSGSGTDFTLKISRVEAEDLGVYFCSQSTLVPTFGGGTKLEIKADAAPTVSIFPPSSEQLTSGGASVVCFLNNFYPKDINVKWKIDGSERQNGVLNSWTDQDSKDSTYSMSSTLTLTKDEYERHNSYTCEATHKTSTSPIVKSFNRNEC
notes: also called MA-I; 鼠源抗体MA-Ⅰ
LILRA2 [1]
  OD 450nm/630nm: 0.083 OD
LILRB2 [2]
  OD 450nm/630nm: 0.036 OD
LILRB3 [3]
  OD 450nm/630nm: 0.072 OD
LILRB1 [4]
  OD 450nm/630nm: 0.064 OD
LILRA3 [5]
  OD 450nm/630nm: 0.068 OD
LILRA1 [6]
  OD 450nm/630nm: 0.12 OD
LILRA4 [7]
  OD 450nm/630nm: 0.092 OD
LILRA5 [8]
  OD 450nm/630nm: 0.077 OD
LILRB4抗原 (人LILRB4蛋白胞外段) [9]
  OD 450nm/630nm: 2.97 OD
LILRB5 [10]
  OD 450nm/630nm: 0.197 OD
LILRA6 [11]
  OD 450nm/630nm: 0.054 OD
LILRA2 [12]
  binding result: no binding (tested: 50μg/mL)
LILRB2 [13]
  binding result: no binding (tested: 50μg/mL)
LILRB3 [14]
  binding result: no binding (tested: 50μg/mL)
LILRB1 [15]
  binding result: no binding (tested: 50μg/mL)
LILRA3 [16]
  binding result: no binding (tested: 50μg/mL)
LILRA1 [17]
  binding result: no binding (tested: 50μg/mL)
LILRA4 [18]
  binding result: no binding (tested: 50μg/mL)
LILRA5 [19]
  binding result: no binding (tested: 50μg/mL)
LILRB5 [20]
  binding result: no binding (tested: 50μg/mL)
LILRA6 [21]
  binding result: no binding (tested: 50μg/mL)
LILRB4抗原 (人LILRB4蛋白胞外段) [22]
  EC50: 0.00835 µg/mL
THP-1细胞表面的LILRB4 [23]
  IC50 of inhibition of ARG1 secretion by THP-1 cells with ApoE (arginase activity): 23.9 µg/mL
THP-1细胞表面的LILRB4 [24]
  EC50: 0.306 µg/mL
THP-1细胞表面的LILRB4 [25]
  IC50: 0.204 µg/mL

B2: 嵌合抗体CA-Ⅰ (MA-Ⅰ variable regions, human IgG1, Ck) (antibody)
heavy: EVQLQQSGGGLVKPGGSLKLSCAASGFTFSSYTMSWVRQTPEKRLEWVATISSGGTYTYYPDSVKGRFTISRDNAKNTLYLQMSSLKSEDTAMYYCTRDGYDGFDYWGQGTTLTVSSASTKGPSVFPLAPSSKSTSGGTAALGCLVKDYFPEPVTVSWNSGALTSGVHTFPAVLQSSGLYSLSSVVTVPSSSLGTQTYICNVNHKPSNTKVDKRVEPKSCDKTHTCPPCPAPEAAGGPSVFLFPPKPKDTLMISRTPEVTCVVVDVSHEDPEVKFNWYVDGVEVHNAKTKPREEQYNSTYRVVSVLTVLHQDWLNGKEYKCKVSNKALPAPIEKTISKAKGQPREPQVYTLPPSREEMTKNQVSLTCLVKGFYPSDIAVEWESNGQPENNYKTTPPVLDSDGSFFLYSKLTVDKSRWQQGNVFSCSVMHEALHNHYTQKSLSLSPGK
light: DIVMTQTTLSLPVSPGDQASISCRSSQSLAHSNGNTYLHWYLQKPGQSPKLLIYKVSNRFSGVPDRFSGSGSGTDFTLKISRVEAEDLGVYFCSQSTLVPTFGGGTKLEIKRTVAAPSVFIFPPSDEQLKSGTASVVCLLNNFYPREAKVQWKVDNALQSGNSQESVTEQDSKDSTYSLSSTLTLSKADYEKHKVYACEVTHQGLSSPVTKSFNRGEC
notes: also called CA-I
LILRB4抗原 (人LILRB4蛋白胞外段) [26]
  EC50: 0.0178 µg/mL
THP-1细胞表面的LILRB4 [27]
  EC50: 0.2 µg/mL

B3: 嵌合抗体CB-Ⅰ (MB-Ⅰ variable regions, human IgG1, Ck) (antibody)
heavy: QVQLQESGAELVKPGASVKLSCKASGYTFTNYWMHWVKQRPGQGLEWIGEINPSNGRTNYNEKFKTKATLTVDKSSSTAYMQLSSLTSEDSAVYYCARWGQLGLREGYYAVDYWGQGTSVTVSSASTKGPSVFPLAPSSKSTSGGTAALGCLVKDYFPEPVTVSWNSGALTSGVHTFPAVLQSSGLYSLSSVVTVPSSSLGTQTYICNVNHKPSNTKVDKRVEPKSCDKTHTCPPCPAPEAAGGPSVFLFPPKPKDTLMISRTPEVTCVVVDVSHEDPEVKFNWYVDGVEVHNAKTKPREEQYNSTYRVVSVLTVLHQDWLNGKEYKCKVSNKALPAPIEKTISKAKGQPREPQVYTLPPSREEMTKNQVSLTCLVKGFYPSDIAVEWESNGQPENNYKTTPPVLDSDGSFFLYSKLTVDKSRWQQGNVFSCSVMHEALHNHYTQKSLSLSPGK
light: DIVMTQSPSSLSASLGDRVTISCRASQDISNYLNWYQQKPDGTVKLLIYYTSRLHSGVPSRFSGSGSGTDYSLTISNLEQEDIATYFCQQGNTLPPTFGGGTKLEIKRTVAAPSVFIFPPSDEQLKSGTASVVCLLNNFYPREAKVQWKVDNALQSGNSQESVTEQDSKDSTYSLSSTLTLSKADYEKHKVYACEVTHQGLSSPVTKSFNRGEC
notes: also called CB-I
LILRB4抗原 (人LILRB4蛋白胞外段) [26]
  EC50: 0.0655 µg/mL
THP-1细胞表面的LILRB4 [27]
  EC50: 0.445 µg/mL

B4: 人源化抗体HA-Ⅱ (human IgG1, Ck) (antibody, V domains shown)
VH: EVQLVESGGGLVKPGGSLRLSCAASGFTFSSYTMSWVRQAPGKGLEWVATISSGGTYTYYPDSVKGRFTISRDNAKNSLYLQMNSLRAEDTAVYYCARDGYDGFDYWGQGTTVTVSS
VL: DIVMTQTPLSLSVTPGQPASISCRSSQSLAHSNGNTYLHWYLQKPGQSPQLLIYKVSNRFSGVPDRFSGSGSGTDFTLKISRVEAEDVGVYFCSQSTHVPTFGGGTKVEIKR
notes: also called HA-II
THP-1细胞表面的LILRB4 [28]
  IC50, NF-κB luciferase reporter in THP-1-NF-κB-Luc cells stimulated with ApoE: 2.68 µg/mL
LILRB4抗原 (人LILRB4蛋白胞外段) [26]
  EC50: 0.0154 µg/mL
THP-1细胞表面的LILRB4 [29]
  IC50 of inhibition of ARG1 secretion by THP-1 cells with ApoE (arginase activity): 250 µg/mL
THP-1细胞表面的LILRB4 [30]
  IC50: 2.75 µg/mL
THP-1细胞表面的LILRB4 [27]
  EC50: 0.179 µg/mL
